Results taken from US20140120109A1 (Regeneron, published 2014).

T1: Fhm, hTL1A(Q167R), soluble, E. coli-expressed, residues 72-251 of SEQ ID NO:246 (human, UniProt O95150 72-251)
T1 construct: with or without N-terminal Met
T1 chain: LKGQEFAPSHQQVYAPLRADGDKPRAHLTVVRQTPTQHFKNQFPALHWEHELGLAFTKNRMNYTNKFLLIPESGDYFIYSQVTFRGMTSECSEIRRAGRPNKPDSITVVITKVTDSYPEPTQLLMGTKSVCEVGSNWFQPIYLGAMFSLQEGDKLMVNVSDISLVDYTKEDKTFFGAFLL

T2: cynomolgus monkey TL1A, soluble, E. coli-expressed, residues 72-251 of SEQ ID NO:248 (cynomolgus monkey (Macaca fascicularis), UniProt O95150 72-251 (human entry))
T2 construct: with or without N-terminal Met; also called MfTL1A (E. Coli)
T2 chain: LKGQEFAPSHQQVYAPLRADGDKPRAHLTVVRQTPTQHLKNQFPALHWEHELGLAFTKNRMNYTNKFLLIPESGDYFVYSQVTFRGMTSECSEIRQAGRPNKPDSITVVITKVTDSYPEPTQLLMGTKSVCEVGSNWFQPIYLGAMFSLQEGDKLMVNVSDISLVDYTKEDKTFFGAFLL

T3: mouse TL1A, soluble, E. coli-expressed, residues 76-252 of SEQ ID NO:250 (mouse, UniProt Q5UBV8 76-252)
T3 construct: with or without N-terminal Met; also called mTL1A (E. Coli)
T3 sequence: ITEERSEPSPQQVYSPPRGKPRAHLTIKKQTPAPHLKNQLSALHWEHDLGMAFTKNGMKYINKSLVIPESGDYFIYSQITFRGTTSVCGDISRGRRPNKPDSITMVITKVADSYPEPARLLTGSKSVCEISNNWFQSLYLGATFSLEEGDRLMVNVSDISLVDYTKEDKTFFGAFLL

T4: Fhm, hTL1A(Q167R), soluble, CHO-expressed, residues 72-251 of SEQ ID NO:246 (human, UniProt O95150 72-251)
T4 chain: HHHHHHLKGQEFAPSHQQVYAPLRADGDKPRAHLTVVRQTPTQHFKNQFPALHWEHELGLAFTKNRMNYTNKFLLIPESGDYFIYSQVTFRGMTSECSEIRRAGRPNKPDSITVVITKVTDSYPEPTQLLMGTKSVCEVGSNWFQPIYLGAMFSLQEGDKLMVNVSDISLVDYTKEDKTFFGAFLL

T5: rat TL1A, soluble, CHO-expressed, residues 76-252 of SEQ ID NO:258 with N-terminal His6-tag (rat, UniProt Q8K3Y7 76-252)
T5 sequence: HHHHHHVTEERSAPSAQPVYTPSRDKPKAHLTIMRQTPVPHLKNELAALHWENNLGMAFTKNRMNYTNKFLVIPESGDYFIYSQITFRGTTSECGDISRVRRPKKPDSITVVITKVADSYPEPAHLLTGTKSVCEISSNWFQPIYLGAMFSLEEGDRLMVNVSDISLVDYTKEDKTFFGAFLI

T6: human TL1A, soluble, CHO-expressed, residues 72-251 of SEQ ID NO:244 with N-terminal His6-tag (human, UniProt O95150 72-251)
T6 sequence: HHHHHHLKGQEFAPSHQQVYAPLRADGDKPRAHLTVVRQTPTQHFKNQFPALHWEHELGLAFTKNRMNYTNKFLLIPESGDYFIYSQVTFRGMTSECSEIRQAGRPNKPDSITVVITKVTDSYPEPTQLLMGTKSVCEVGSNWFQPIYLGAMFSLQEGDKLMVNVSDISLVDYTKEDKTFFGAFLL


What was measured:
[1] = target: T1, Fhm, hTL1A(Q167R), soluble, E. …; experiment: SPR 25C, mAb captured
Outline: (§1)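 Biacore T100 SPR with captured mAb and soluble TL1A/Fhm analyte; ka and kd fitted to a 1:1 model assuming monomeric TL1A. KD = kd/ka; t1/2 (min) = ln2/(60·kd).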

[2] = target: T2, cynomolgus monkey TL1A, soluble, E. …; experiment: SPR 25C, mAb captured
Outline: as §1

[3] = target: T3, mouse TL1A, soluble, E. coli-expressed, …; experiment: SPR 25C, steady state
Outline: as §1

[4] = target: T4, Fhm, hTL1A(Q167R), soluble, …; experiment: cell-based or functional assay
[5] = target: T5, rat TL1A, soluble, CHO-expressed, …; experiment: cell-based or functional assay
[6] = target: T6, human TL1A, soluble, CHO-expressed, …; experiment: cell-based or functional assay

Binder	Kd [1] [nM]	t1/2 [1] [h]	Kd [2] [nM]	t1/2 [2] [h]	IC50, NFkB-luciferase reporter [4] [nM]	IC50, NFkB-luciferase reporter [5] [nM]	IC50, IFN-g release, average of donors [6] [nM]	IC50, IFN-g release, donor D1 [6] [nM]	IC50, IFN-g release, donor D2 [6] [nM]	IC50, IFN-g release, donor D3 [6] [nM]	IC50, IFN-g release, donor D4 [6] [nM]	IC50, IFN-g release, donor D5 [6] [nM]	IC50, IFN-g release, donor D6 [6] [nM]	IC50, IFN-g release, donor D7 [6] [nM]	IC50, IFN-g release, donor D8 [6] [nM]	IC50, IFN-g release, donor D9 [6] [nM]	IC50, IFN-g release, donor D10 [6] [nM]	IC50, IFN-g release, donor D11 [6] [nM]	IC50, IFN-g release, donor D12 [6] [nM]	further results
H4H1742P (antibody, human IgG4 S228P, V domains shown) VH: EVQLVESGGGLVQPGGSLRLSCAASGFTFSNYVMNWVRQAPGKGLEWVSVISGSGGSTHYADSVKGRFTISRDNSKDALYLQMNSLRAEDTAVYYCAKGPLEAYYYYNGMDVWGQGTTVTVSS VL: DIQLTQSPSFLSASVGDRVTITCWASQAISSYLAWYQHKPGRAPKLLIYSTSTLQSGVPSRFSGSGSGTEFTLTISSLQPEDFATYYCQQLNSYPTFGQGTKLEIK	0.437	2.15	0.593	1.62	0.53	6.12	20	24	4.6	10	13	12	10	31	27	56	12	27	14	binding result [3]: no binding (tested: up to 100 nM)
H4H1725P (antibody, human IgG4 S228P, V domains shown) VH: QVQLVQSGAEVKKPGASVKVSCKASGYTFTGYYMHWVRQAPGQGLEWMGWIKPKSGGTNYVQKFQGRVTMTRDTSINTAYMELNNLKSDDTAVYYCATGGSQDASDFWGQGTMVTVSS VL: DIQMTQSPSSVSASVGGRVTITCRASQDISIWLAWYQQKPGKAPNLLIYAASSLQSGVPSRFSGSGSGTDFTLTISSLQPEDFATYYCQQADSFPLTFGGGTKVEIK	0.0289	7.45	0.0637	4.87	0.07	63.4	6.4	3.4	3.2	5.4	4.7	7	5.4	13	12	6.4	4.1	6.1	6.4	Kd [3]: 62 nM
